From article PMC3311620 come the findings set out here.

The target in the test is CXCR7-RLuc (human) (UniProt P25106).
Sequence of UniProt P25106 (P25106 whole entry): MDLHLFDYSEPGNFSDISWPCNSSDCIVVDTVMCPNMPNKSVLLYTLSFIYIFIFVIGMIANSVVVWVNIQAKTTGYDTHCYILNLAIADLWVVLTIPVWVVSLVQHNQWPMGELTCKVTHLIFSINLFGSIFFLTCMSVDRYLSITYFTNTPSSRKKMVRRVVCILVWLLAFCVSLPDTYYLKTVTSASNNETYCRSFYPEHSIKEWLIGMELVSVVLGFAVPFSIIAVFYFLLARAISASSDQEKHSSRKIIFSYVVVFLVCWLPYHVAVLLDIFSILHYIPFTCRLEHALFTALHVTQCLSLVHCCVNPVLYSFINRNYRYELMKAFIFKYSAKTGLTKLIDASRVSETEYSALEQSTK

B1: CXCL11 (I-TAC) (ligand)
chain: FPMFKRGRCLCIGPGVKAVKVADIEKASIMYPSNNCDKIEVIITLKENKGQRCLNPKSKQARLIIKKVERKNF
B1: the pEC50 of CXCL11 for β-arrestin1-YFP recruitment to CXCR7-RLuc (BRET, HEK293T) is 8.7 and the pEC50 of CXCL11 for β-arrestin2-YFP recruitment to CXCR7-RLuc (BRET, HEK293T) is 8.5.
